Experimental findings from article PMC5731645 (Neuron, 2017) are described below.

Sequences and labels used below:
T1: trx-Ndel1 CT-CC (mouse, UniProt Q9ERR1-1 238-284)
T1 chain (looked up): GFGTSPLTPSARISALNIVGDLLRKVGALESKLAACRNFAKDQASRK

T2: DISC1 765–852 (mouse, UniProt Q811T9-1 765-852)
T2 sequence (looked up): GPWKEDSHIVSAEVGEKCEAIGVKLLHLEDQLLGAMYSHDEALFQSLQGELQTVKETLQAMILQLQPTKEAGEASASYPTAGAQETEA

B1: Ndel1 with the C-terminal half (aa 194–345) truncated (domain or fragment, mouse, UniProt Q9ERR1-1 1-193, looked up)
chain: MDGEDIPDFSSLKEETAYWKELSLKYKQSFQEARDELVEFQEGSRELEAELEAQLVQAEQRNRDLQADNQRLKYEVEALKEKLEHQYAQSYKQVSVLEDDLSQTRAIKEQLHKYVRELEQANDDLERAKRATIVSLEDFEQRLNQAIERNAFLESELDEKESLLVSVQRLKDEARDLRQELAVRERQQEVTRK
B2: DISC1 765–835 (domain or fragment, mouse, UniProt Q811T9-1 765-835, looked up)
chain: GPWKEDSHIVSAEVGEKCEAIGVKLLHLEDQLLGAMYSHDEALFQSLQGELQTVKETLQAMILQLQPTKEA
B3: DISC1 322–852 (domain or fragment, mouse, UniProt Q811T9-1 322-852, looked up)
chain: ADAHGWHTLLREWEPMLQDYLLSNRRQLEVTSLILKLQKCQEKVVEDGDYDTAETLRQRLEELEQEKGRLSWALPSQQPALRSFLGYLAAQIQVALHGATQRAGSDDPEAPLEGQLRTTAQDSLPASITRRDWLIREKQRLQKEIEALQARMSALEAKEKRLSQELEEQEVLLRWPGCDLMALVAQMSPGQLQEVSKALGETLTSANQAPFQVEPPETLRSLRERTKSLNLAVRELTAQVCSGEKLCSSLRRRLSDLDTRLPALLEAKMLALSGSCFSTAKELTEEIWALSSEREGLEMFLGRLLALSSRNSRRLGIVKEDHLRCRQDLALQDAAHKTRMKANTVKCMEVLEGQLSSCRCPLLGRVWKADLETCQLLMQSLQLQEAGSSPHAEDEEQVHSTGEAAQTAALAVPRTPHPEEEKSPLQVLQEWDTHSALSPHCAAGPWKEDSHIVSAEVGEKCEAIGVKLLHLEDQLLGAMYSHDEALFQSLQGELQTVKETLQAMILQLQPTKEAGEASASYPTAGAQETEA
B4: full-length Nde1 (natural protein, human, UniProt Q9NXR1-2 1-335, looked up)
chain: MEDSGKTFSSEEEEANYWKDLAMTYKQRAENTQEELREFQEGSREYEAELETQLQQIETRNRDLLSENNRLRMELETIKEKFEVQHSEGYRQISALEDDLAQTKAIKDQLQKYIRELEQANDDLERAKRATIMSLEDFEQRLNQAIERNAFLESELDEKENLLESVQRLKDEARDLRQELAVQQKQEKPRTPMPSSVEAERTDTAVQATGSVPSTPIAHRGPSSSLNTPGSFRRGLDDSTGGTPLTPAARISALNIVGDLLRKVGALESKLASCRNLVYDQSPNRTGGPASGRSSKNRDGGERRPSSTSVPLGDKGLDTSCRWLSKSTTRSSSSC
B5: full-length Ndel1 (natural protein, mouse, UniProt Q9ERR1-1 1-345, looked up)
chain: MDGEDIPDFSSLKEETAYWKELSLKYKQSFQEARDELVEFQEGSRELEAELEAQLVQAEQRNRDLQADNQRLKYEVEALKEKLEHQYAQSYKQVSVLEDDLSQTRAIKEQLHKYVRELEQANDDLERAKRATIVSLEDFEQRLNQAIERNAFLESELDEKESLLVSVQRLKDEARDLRQELAVRERQQEVTRKSAPSSPTLDCEKMDSAVQASLSLPATPVGKGTENSFPSPKAIPNGFGTSPLTPSARISALNIVGDLLRKVGALESKLAACRNFAKDQASRKSYVPGSVNCGVMNSNGPECPRSGRATFFHKGAVNGFDPAPPPPGLGSSRPSSAPGMLPLSV

Like-named read-outs stand apart in the source and are kept apart here.

Data set [1] deals with the molecule itself. As to the kind of experiment: SEC-MALS.
In the data set “full-length Nde1” the target is B4. As to the kind of experiment: ITC.
Data set [2] concerns the molecule itself. Nature of the data set: SEC-MALS. The source holds these as a separate data set. For orientation: In gel filtration, larger molecules generally elute earlier.
The next data set has as its target T1, trx-Ndel1 CT-CC. Nature of the data set: SEC-MALS.
The data set “DISC1 765–835” addresses B2. Nature of the data set: ITC. (In general: Isothermal titration calorimetry measures the heat released or taken up as one component is titrated into another.)
Another data set has as its target T2, DISC1 765–852. Nature of the data set: NMR structure.
The data set “DISC1 322–852” concerns the target B3. Nature of the data set: ITC.

For the molecule B1, the “stoichiometry N” value in “SEC-MALS [1]” came to 2.

B2: in the data set with full-length Nde1, the binding result is recorded as “binds”. For the same molecule, the “stoichiometry N” value in “SEC-MALS [2]” was found to be 2; with trx-Ndel1 CT-CC, 1.

As to STGGTPLTPAARISALNIVGDLLRKVGALESKLASCRNLVYDQSPNRT (domain or fragment, human, UniProt Q9NXR1-2 239-286, looked up) [Nde1 CT-CC], the binding result with DISC1 765–835 was “binds”.

As to GFGTSPLTPSARISALNIVGDLLRKVGALESKLAACRNFAKDQASRK (domain or fragment, mouse, UniProt Q9ERR1-1 238-284, looked up) [Ndel1 CT-CC], the binding result in the data set with DISC1 765–835 and in the data set with DISC1 765–852 was “binds” throughout.

With B3, in the data set with full-length Nde1, the “stoichiometry N” value worked out at 1.

In the case of B4, the Kd with DISC1 322–852 is around 40 nM.

As for B5, the “stoichiometry N” value in the data set “SEC-MALS [1]” was 2.

One may read the stoichiometry N as a count of units in the complex or per binding partner. For orientation: Kd means the concentration at which binding is half-saturated. A low value points to tighter binding.
